{"source": "patent US7888090B2", "about": "“Mutants of O6-alkylguanine-DNA alkyltransferase” (Ecole Polytechnique Federale de Lausanne, priority 2004, dated 2011)", "molecules": {"B1": {"name": "AGTM: AGT mutant Cys62Ala, Gln115Ser, Gln116His, Lys125Ala, Ala127Thr, Arg128Ala, Gly131Lys, Gly132Thr, Met134Leu, Arg135Ser, Cys150Asn, Ser151Ile, Ser152Asn, Asn157Gly, Ser159Glu, truncated after … (protein, UniProt P16455 1-207, looked up, variant C62A Q115S Q116H K125A A127T R128A G131K G132T M134L R135S C150N S151I S152N N157G S159E del183-207)", "Methylated-DNA--protein-cystei …": "MDKDCEMKRTTLDSPLGKLELSGCEQGLHEIKLLGKGTSAADAVEVPAPAAVLGGPEPLMQATAWLNAYFHQPEAIEEFPVPALHHPVFQQESFTRQVLWKLLKVVKFGEVISYSHLAALAGNPAATAAVKTALSGNPVPILIPCHRVVNINGAVGGYEGGLAVKEWLLAHEGHRLGKPGLG", "modifications": "His tag"}}, "key": {"[1]": {"assay": "Solubility in vitro after overnight incubation", "assay_type": "physicochemical", "conditions": "compared to wild type AGT", "experimental": "The in vitro solubility of wild type AGT and the AGT mutant is measured by determining the amount of protein that remains in the soluble fraction after overnight incubation of purified samples at 4° C. or up to 37° C. at one or several concentrations established in a suitable buffer (e.g. 100 mM NaCl, 20 mM Tris, pH 8.0, 20% glycerol, 1 mM DTT).\nThe solubility of AGTM or an AGTM fusion protein in vitro is measured by determining the amount of protein that remains in the soluble fraction after overnight incubation of purified samples at 4 or up to 37° C. at one or several concentrations established in a suitable buffer (e.g. 100 mM NaCl, 20 mM Tris, pH 8.0, 20% Glycerol), and it is compared to that of wild type AGT or to known AGT mutants such as “PGEG-hAGT” (Juillerat et al., Chem Biol 10:313-317, 2003)."}, "[2]": {"assay": "Activity assay with biotinylated O^6-benzylguanine (BG-Bt), Western blotting", "assay_type": "biochemical", "conditions": "statement in words", "outline": "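Purified mutant GST-AGT (0.2 μM) reacted with 1 μM biotinylated O^6-benzylguanine in 50 mM HEPES pH 7.2, 1 mM DTT at room temperature. Time-point aliquots quenched with O^6-benzylguanine in SDS buffer. Biotinylated protein detected by Western blot with neutravidin-peroxidase, band intensity quantified.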"}, "[3]": {"assay": "BG-Cy3 activity assay (reaction rate of AGT mutants)", "assay_type": "biochemical", "conditions": "divided by value for wild type hAGT; purified GST fusion proteins (p.)", "experimental": "Reactivity against DNA-based substrates measured with a BG-Cy3 assay: BG-Cy3 is prepared by reacting the previously described O^6-(4-aminomethyl-benzyl)guanine (Keppler et al., NatureBiotechnol. 21:86-89, 2003) with the commercially available N-hydroxysuccinimide ester of Cy3, (Cy3-NHS, Amersham). The coupling reaction is performed at ambient temperature in N,N-dimethylformamide in the presence of 1 eq. of triethylamine. The BG-Cy3 conjugate is purified by reversed-phase HPLC on a C18-column by using linear gradients from 0.1% trifluoroacetic acid to acetonitrile. After solvent evaporation BG-Cy3 is dissolved in dimethyl sulfoxide and stored at −20° C. For measuring the reactivity with DNA-based substrates, a reaction mixture containing different concentrations (0 to 5 µM) of oligonucleotide SEQ ID NO:2 (modified in position 14), GST-AGT fusion protein at 0.2 µM and BG-Cy3 at […] in reaction buffer (50 mM HEPES, pH 7.2, 1 mM DTT, 200 mg/ml BSA) is incubated in microtiterplates. Fluorescence of the Cy3 derivative (excitation 519 nm, emission at 572 nm) is measured on a Spectramax Gemini plate reader (Molecular Devices).\nThe amplified products are cloned in fusion to the g3 gene of filamentous phage in the vector pAK100 via SfiI restriction sites. The resulting gene libraries are used for phage display as described under Example 4. The mutants of the libraries are selected with 5 to 50 nM of BG-Bt for 10 min. Selected mutants are subcloned into pGEX using the primers SEQ ID NO:3 and SEQ ID NO:13. The reaction rate of mutant AGTs is determined as described in Example 6, Reactivity against DNA-based substrates (BG-Cy3 assay).\nFor the activity assay purified GST fusion proteins were used for mutants marked with “p.” (prepared as described under Example 1); periplasmic extracts were used for mutants marked with “x.” (prepared as described under Example 2)."}, "[4]": {"assay": "Stability after reaction with BG-FL", "assay_type": "physicochemical", "experimental": "Stability before reaction is determined for the mutant AGT or for a mutant AGT fusion protein by incubating purified samples in buffered aqueous solution for up to two weeks at 4° C. and up to six months at −20° C. At several time points, aliquots are taken and concentration of reactive AGT is estimated as described by Juillerat et al., Chem Biol 10:313-317, 2003. Stability for wild type AGT and the AGT mutant after reaction with a labelled substrate and after subsequent separation from unreacted substrate is determined by quantifying the concentration of the label in the soluble fraction over up to two weeks at 4° C. and up to three months at −20° C.\nStability after reaction: The vector pBAD/H is A (Invitrogen) is modified by cloning synthetic oligonucleotides (SEQ ID NO:29 and SEQ ID NO:30) between the NcoI and HindIII sites to include a 12×His-tag and SbfI and AscI cloning sites. The gene of AGTM is amplified with primers SEQ ID NO:31 and SEQ ID NO:32 and cloned between the SbfI/AscI sites into this vector. Wild type AGT and mutant AGT (Lys125Ala, Ala127Thr, Arg128Ala, Asn157Gly, Ser159Glu) are amplified with primers SEQ ID NO:31 and SEQ ID NO:33 and cloned into this vector. Protein expression is carried out in E. coli strain Top 10. An exponentially growing culture is induced with 0.2% arabinose, and the expression is carried out for 16 hours at 28° C. The cells are lysed by adding buffer to 10 ml/g containing 0.5 M NaCl, 80 mM imidazole, 1% Triton, 250 µM PMSF, 1 mM […]-mercaptoethanol, 5 mg/ml lysozyme, 20 µg/ml DNase and stirring for 45 min. […]\nThe AGT proteins at 10 µM) are quantitatively reacted with fluorescein-modified O^6-benzyl-guanine (substance 5 of Juillerat et al, Chem Biol 10:313-317, 2003, BG-FL, 20 µM) and purified over a size exclusion column (Econopac 10 DG, Bio-Rad) and incubated for 7 days. […] The fluorescence of the supernatant is measured with a Victor2 fluorescence plate reader (Perkin Elmer, excitation/emission at 485/535 nm)."}}, "data": [{"molecule": "B1", "values": [{"measurement": "solubility in vitro", "setting": "[1]", "value": "at least fourfold increased"}, {"measurement": "activity towards O^6-benzylguanine substrates", "setting": "[2]", "value": "retains the reactivity"}, {"measurement": "activity towards O^6-benzylguanine substrates", "setting": "[2]; Gln115Ser, Gln116His, Lys125Ala, Ala127Thr, Arg128Ala, Gly131Lys, Gly1", "value": "increased reactivity"}, {"measurement": "Relative reaction rate", "setting": "[3]", "value": 2.72}, {"measurement": "time labeled protein remains stable in solution", "setting": "[4]", "value": "over 7 days"}]}]}
